# Measurements published in publication PMC5290283.
# Target: C-terminal region of APC (APC-CT), FLAG-tagged
# Experiment: AlphaScreen
# Conditions: Donor: Gag MA-GST-biotin; acceptor: APC(CT)-FLAG; n=3; parent: est. 2.1; read off a plot
row,Substance,response
1,"Fyn(10)WT (wild-type protein of the AlphaScreen with MA HBR mutants) 6A2T: HBR segment […] -> […] (K>A; K>A; R>A; R>A; K>A; K>A; K>T; K>T, in segment order)",0.25 10^3 RLU
2,"Fyn(10)WT (wild-type protein of the AlphaScreen with MA HBR mutants) RKswitch: HBR segment […] -> […] (K>R; K>R; R>K; R>K; K>R; K>R; K>R; K>R, in segment order)",2.3 10^3 RLU
